Experimental data reported in publication PMC7263589, “Integration of phage and yeast display platforms: A reliable and cost effective approach for binning of peptides as displayed on-phage” (PLoS ONE, 2020).

Legend:
[1] = test system: IL-23 binding to IL-23R; assay: Competition SPR: IL-23 binding to captured IL-23R-Fc-AVI in the presence of peptide; conditions: concentration tested 0.1 μM; 20 nM IL-23, IL-23R-Fc-AVI on Protein-A, 30 s injection, 1% BSA buffer; n = 1
Procedure: SPR (Biacore T200, GE Healthcare) was used to determine binding constants of the peptides against IL-23 and their competitiveness to IL-23R. All SPR experiments were performed at 25°C with flow rate of 50 μl/min. Assay buffer used in direct binding experiment was 10 mM HEPES pH 7.5, 150 mM NaCl, 0.005% P20, and 3% DMSO. Assay buffer used in competition experiment was 10 mM HEPES pH 7.5, 150 mM NaCl, 0.005% P20, and 1% BSA. All peptides were reconstituted first in DMSO as 10 mM stocks and then diluted into assay buffer. The proteins used in direct binding and competition SPR are described in S1 Table in S1 File. For direct binding of peptides against IL-23, 2000–9000 RU of IL-23-AVI was captured to streptavidin sensor chips (GE Healthcare, Series S Sensor Chip SA, BR-1005-31). Dilution series with 3-fold increment were prepared for each peptide. Initially, all peptides were tested up to 30 μM. […] IL-23 at 20 nM without peptide, “IL-23 only”, was used as control to quantify IL-23 binding without blockage; while “cold” IL-23R was used as a positive control for blockage.
The design of competition SPR was based on a knockdown assay (Fig 5A). […] Response levels of IL-23 plus peptide were measured post injection (Fig 5B) to avoid possible bulk RI difference between analyte and running buffer. […]

[2] = biological target: T1, IL-23 (Homo sapiens, UniProt P29460+Q9NPF7); assay: SPR direct binding to captured IL-23-AVI (Biacore T200); conditions: IL-23-AVI captured on streptavidin chip, 25°C, 1:1 binding model, n = 1, 23–447 an estimate
T1 construct: made in house
T1 sequence (Q9NPF7 20-189): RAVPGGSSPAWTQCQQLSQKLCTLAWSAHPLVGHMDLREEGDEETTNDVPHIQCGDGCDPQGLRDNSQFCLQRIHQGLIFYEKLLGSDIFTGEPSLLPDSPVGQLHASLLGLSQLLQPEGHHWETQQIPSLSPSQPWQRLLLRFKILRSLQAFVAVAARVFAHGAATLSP
T1 sequence (P29460 23-328): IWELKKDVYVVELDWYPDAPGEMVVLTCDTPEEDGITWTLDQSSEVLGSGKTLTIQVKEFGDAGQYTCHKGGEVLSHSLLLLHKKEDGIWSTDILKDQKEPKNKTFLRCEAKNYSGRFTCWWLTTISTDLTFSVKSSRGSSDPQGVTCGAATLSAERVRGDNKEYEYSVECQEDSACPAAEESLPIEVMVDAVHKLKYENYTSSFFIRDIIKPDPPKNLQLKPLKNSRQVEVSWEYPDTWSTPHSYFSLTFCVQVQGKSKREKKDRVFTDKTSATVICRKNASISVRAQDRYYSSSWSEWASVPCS
Procedure: SPR (Biacore T200, GE Healthcare) was used to determine binding constants of the peptides against IL-23 and their competitiveness to IL-23R. All SPR experiments were performed at 25°C with flow rate of 50 μl/min. Assay buffer used in direct binding experiment was 10 mM HEPES pH 7.5, 150 mM NaCl, 0.005% P20, and 3% DMSO. Assay buffer used in competition experiment was 10 mM HEPES pH 7.5, 150 mM NaCl, 0.005% P20, and 1% BSA. All peptides were reconstituted first in DMSO as 10 mM stocks and then diluted into assay buffer. The proteins used in direct binding and competition SPR are described in S1 Table in S1 File. For direct binding of peptides against IL-23, 2000–9000 RU of IL-23-AVI was captured to streptavidin sensor chips (GE Healthcare, Series S Sensor Chip SA, BR-1005-31). Dilution series with 3-fold increment were prepared for each peptide. Initially, all peptides were tested up to 30 μM. Concentration range for some were then lowered accordingly based on affinity or nuisance behavior at high concentrations. SPR “multi-cycle” type was used for peptides 23–644, 23–437, 23–441, 23–446, and 23–447. Each cycle consisted of 30s of analyte injection and then 60s of buffer flow to monitor dissociation. “Single cycle kinetics” (SCK) type was used for 23–652 due to their long dissociation half-lives. Each SCK cycle consisted of five 60s injections of sample in increasing concentration with a final 600s of dissociation. To study IL-23 and IL-23R interaction, 200–1000 RU of IL-23-AVI and IL-23R-Fc-AVI were captured to streptavidin sensor chip. Dilution series with 3-fold increment of IL-23R-FLAG-HIS and IL-23-HIS were run in SCK cycle type as described above except the final dissociation time were 60-300s. Sensorgrams from the entire titration series for each sample were fitted globally to extract binding kinetics and affinity using Biacore T200 Evaluation Software 2.0 (GE Healthcare) according to a 1:1 binding model. To identify IL-23 binders that can block receptor binding, a competition SPR was established. In each SPR cycle, fresh IL-23R was capture (<1000 RU) by injecting 10 μg/ml of IL-23R-Fc-AVI to a Protein-A flow cell at 10 μl/min flow rate for 30s. Analyte consisted of a mixture of 20 nM of IL-23 protein and a single concentration of peptide was then injected for 30s at 50 μl/min to observe IL-23 binding. Finally, the Protein-A surface was regenerated by 10 mM Glycine pH 1.5 for 30s at 30 μl/min. IL-23 at 20 nM without peptide, “IL-23 only”, was used as control to quantify IL-23 binding without blockage; while “cold” IL-23R was used as a positive control for blockage.

B1: IL-23R: IL23R ECD (aa 1-353) with C-terminal Flag and HIS tags produced in HEK293 cells; positive control for blockage (protein)
chain: GITNINCSGHIWVEPATIFKMGMNISIYCQAAIKNCQPRKLHFYKNGIKERFQITRINKTTARLWYKNFLEPHASMYCTAECPKHFQETLICGKDISSGYPPDIPDEVTCVIYEYSGNMTCTWNAGKLTYIDTKYVVHVKSLETEEEQQYLTSSYINISTDSLQGGKKYLVWVQAANALGMEESKQLQIHLDDIVIPSAAVISRAETINATVPKTIIYWDSQTTIEKVSCEMRYKATTNQTWNVKEFDTNFTYVQQSEFYLEPNIKYVFQVRCQETGKRYWQPWSSLFFHKTPETVPQVTSKAFQHDTWNSGLTVASISTGHLTSDNRGDIGLLLGMIVFAVMLSILSLIGIFNRSFRTGIKRRILLLIPKWLYEDIPNMKNSNVVKMLQENSELMNNNSSEQVLYVDPMITEIKEIFIPEHKPTDYKKENTGPLETRDYPQNSLFDNTTVVYIPDLNTGYKPQISNFLPEGSHLSNNNEITSLTLKPPVDSLDSGNNPRLQKHPNFAFSVSSVNSLSNTIFLGELSLILNQGECSSPDIQNSVEEETTMLLENDSPSETIPEQTLLPDEFVSCLGIVNEELPSINTYFPQNILESHFNRISLLEK
modifications: fluorescent label (dye and site not stated)
With B1 the “Competition SPR %Inhibition” value [1] was 98.0%, the kd [2] was 0.00151 s⁻¹ and the ka ([2]; 50 μl/min, 10 mM HEPES pH 7.5, 150 mM NaCl, 0.005% P20, 3% DMSO, multi-cycle (single cycle kinetics for 23–652 and IL-23R)) was 170000 M⁻¹ s⁻¹.
